Results published in PMC10361524.

Key:
[1] = target: T1, IL-24B4 displayed on the yeast surface (version with an N-terminal linker of 17 amino acids, fused to a fluorescent protein) (human); assay: flow cytometry on cells; yeast surface display of IL-24B4 (suspension enriched with 0.5% IL-24S yeast); CF640R-labelled IL-20R2D variants at 500, 100, 20, 4 and 0.1 nM in PBSB with 10 nM bilirubin, overnight at 4°C; apparent Kd (affinity and avidity); not irradiated
[2] = target: T1, IL-24B4 displayed on the yeast surface …; assay: flow cytometry on cells; as a3, but the labelled IL-20R2D variant UV irradiated (365 nm); apparent Kd
[3] = target: IL-20R2D Y70NBY + UV (human), Q6UXL0; assay: MST; as a1, but the IL-20R2D variant irradiated at 365 nm (100 mW, 5 min) before use
IL-20R2D (human), Q6UXL0 [4] = assay: as above
IL-20R2D (human), Q6UXL0 [5] = assay: MST; IL-20R2D variants labelled with RED-tris-NTA dye on the His tag, held constant at 50 nM; unlabelled IL-24B4 titrated; 50 mM Tris pH 8, 100 mM NaCl, 0.02% pluronic F127; not irradiated
[6] = target: T2, IL-20R2D Y74NBY (human), Q6UXL0; assay: as above
T2 chain: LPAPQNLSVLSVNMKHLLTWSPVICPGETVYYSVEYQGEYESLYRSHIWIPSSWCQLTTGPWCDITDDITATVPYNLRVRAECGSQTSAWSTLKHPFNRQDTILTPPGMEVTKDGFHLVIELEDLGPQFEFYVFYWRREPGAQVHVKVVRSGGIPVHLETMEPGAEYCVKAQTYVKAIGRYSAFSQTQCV

[7] = target: T3, IL-20R2D Y70NBY/Y74NBY (human), Q6UXL0; assay: as above
T3 chain: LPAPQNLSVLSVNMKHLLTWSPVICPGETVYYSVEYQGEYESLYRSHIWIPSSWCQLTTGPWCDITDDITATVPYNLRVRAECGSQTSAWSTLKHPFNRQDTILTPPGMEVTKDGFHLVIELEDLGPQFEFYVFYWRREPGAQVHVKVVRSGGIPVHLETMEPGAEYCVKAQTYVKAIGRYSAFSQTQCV

[8] = target: T4, IL-20R2D Y70NBY (human), Q6UXL0; assay: as above
T4 chain: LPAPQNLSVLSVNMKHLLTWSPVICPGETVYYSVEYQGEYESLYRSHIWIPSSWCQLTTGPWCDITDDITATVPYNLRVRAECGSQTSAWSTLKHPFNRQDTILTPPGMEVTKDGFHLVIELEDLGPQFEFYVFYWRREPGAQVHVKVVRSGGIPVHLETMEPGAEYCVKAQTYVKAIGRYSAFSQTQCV

IL-20R2D (human), Q6UXL0 [9] = assay: as above; remark: listed apart in the source

T1 sequence (main, as listed by the source): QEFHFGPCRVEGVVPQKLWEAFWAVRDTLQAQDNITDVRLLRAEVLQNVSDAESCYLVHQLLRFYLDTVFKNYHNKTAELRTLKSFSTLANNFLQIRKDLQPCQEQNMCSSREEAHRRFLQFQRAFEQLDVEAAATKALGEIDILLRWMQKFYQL

B1: IL-20R2D Y70NBY, Q6UXL0 30-233 (receptor)
chain: LPAPQNLSVLSVNMKHLLTWSPVICPGETVYYSVEYQGEYESLYRSHIWIPSSWCQLTTGPWCDITDDITATVPYNLRVRAECGSQTSAWSTLKHPFNRQDTILTPPGMEVTKDGFHLVIELEDLGPQFEFYVFYWRREPGAQVHVKVVRSGGIPVHLETMEPGAEYCVKAQTYVKAIGRYSAFSQTQCV
modifications: here or on the partner: ortho-nitrobenzyl-tyrosine (NBY) at 70
For B1, the Kd [1] was 2000 nM.

B2: IL-20R2D, Q6UXL0 30-233 (receptor)
chain: LPAPQNLSVLSVNMKHLLTWSPVICPGETVYYSVEYQGEYESLYRSHIWIPSSWCQLTTGPWCDITDDITATVPYNLRVRAECGSQTSAWSTLKHPFNRQDTILTPPGMEVTKDGFHLVIELEDLGPQFEFYVFYWRREPGAQVHVKVVRSGGIPVHLETMEPGAEYCVKAQTYVKAIGRYSAFSQTQCV
modifications: here or on the partner: designed disulfide Cys59-Cys117 (UniProt numbering)
B2 showed a Kd [1] of 5 nM and a Kd [2] of 9.6 nM.

B3: IL-20R2D Y70NBY + UV, Q6UXL0 30-233 (receptor)
chain: LPAPQNLSVLSVNMKHLLTWSPVICPGETVYYSVEYQGEYESLYRSHIWIPSSWCQLTTGPWCDITDDITATVPYNLRVRAECGSQTSAWSTLKHPFNRQDTILTPPGMEVTKDGFHLVIELEDLGPQFEFYVFYWRREPGAQVHVKVVRSGGIPVHLETMEPGAEYCVKAQTYVKAIGRYSAFSQTQCV
modifications: here or on the partner: UV-decaged, Tyr70 restored to canonical tyrosine; designed disulfide Cys59-Cys117
With B3 the Kd [2] was 7.6 nM.

B4: IL-24B4 (SUMO-cleaved, C-terminal Strep-tag), Q13007 52-206 (ligand)
chain: FHFGPCRVEGVVPQELWEAFWAVRDTLQAQDNITDVRLLRAEVLQNVSDAESCYLVHQLLRFYLDTVFKNYHNKTAELRTLKSFSTLANNFVLIVSDLQPCQEQNMCSSREEAHRRFLQFQRAFEQLDVEAAATKALGEIDILLTWMQKFYQL
modifications: here or on the partner: UV-decaged, Tyr70 restored to canonical tyrosine; designed disulfide Cys59-Cys117
In the case of B4, the Kd [3] is reported as 3300 nM, the Kd (IL-20R2D (human), Q6UXL0 [4]) is reported as 3700 nM and the Kd (IL-20R2D (human), Q6UXL0 [5]) is reported as 500 nM. For the same binder, the Kd [6] was 430 nM, the Kd [7] was 570 nM and the Kd [8] was over 94000 nM. The Kd (IL-20R2D (human), Q6UXL0 [9]) was 630 nM.
